Laboratory results published in patent US20240325555A1 (LANOVA MEDICINES, published 2024).
Where two headings read alike, the source gives them in different places.

Key:
[1] = molecular target: T1, human LIV-1 (human, UniProt Q13433 29-755); test: FACS, human LIV-1 cells
T1 construct: whole, on cells; also called H-LIV1
T1 sequence (looked up): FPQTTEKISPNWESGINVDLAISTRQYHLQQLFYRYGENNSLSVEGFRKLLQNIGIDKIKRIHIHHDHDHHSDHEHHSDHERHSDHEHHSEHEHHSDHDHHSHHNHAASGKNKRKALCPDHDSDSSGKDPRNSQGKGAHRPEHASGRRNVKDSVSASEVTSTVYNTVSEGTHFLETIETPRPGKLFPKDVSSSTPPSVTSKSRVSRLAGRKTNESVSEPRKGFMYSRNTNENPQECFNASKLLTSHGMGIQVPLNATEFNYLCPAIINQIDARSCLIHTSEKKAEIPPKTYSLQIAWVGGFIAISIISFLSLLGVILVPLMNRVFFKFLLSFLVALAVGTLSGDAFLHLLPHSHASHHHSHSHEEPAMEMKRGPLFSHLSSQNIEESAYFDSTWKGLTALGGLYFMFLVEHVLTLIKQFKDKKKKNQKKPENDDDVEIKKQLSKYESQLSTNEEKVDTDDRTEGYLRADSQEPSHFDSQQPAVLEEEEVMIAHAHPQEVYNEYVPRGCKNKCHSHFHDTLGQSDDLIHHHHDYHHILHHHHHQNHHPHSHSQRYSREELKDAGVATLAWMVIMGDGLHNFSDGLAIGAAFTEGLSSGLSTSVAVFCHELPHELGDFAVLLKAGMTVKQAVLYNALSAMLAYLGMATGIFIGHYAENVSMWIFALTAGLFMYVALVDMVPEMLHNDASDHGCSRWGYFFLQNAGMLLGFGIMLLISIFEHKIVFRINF
Method: (§1) In this example, cell based binding of humanized antibodies (hu Abs) on human LIV-1-expressing cells were assessed using flow cytometry.
(§2) Cell based binding of hu-Abs on human LIV-1 expressing cells were assessed using flow cytometry. Briefly, the HEK293/H_LIV-1 cells were incubated with hu-Abs (from 100 nM, 6 folds dilution, 8 points). After incubation at 4° C. for 60 minutes, the cells were washed with FACS buffer twice, then stained with fluorescent conjugated secondary antibody at 4° C. for 30 minutes. After that the cells were washed twice and analyzed by flow cytometry.

[2] = molecular target: T1, human LIV-1; test: FACS, BT20/H_LIV-1 High cells
Method: (§3) Cell based binding of ADC and naked of ADC on human LIV-1 expressing cells were assessed using flow cytometry. Briefly, HEK293/H_LIV-1, both low- and high-expressing H-LIV1-positive cell lines were incubated with ADC and naked of ADC (from 100 nM, 6 folds dilution, 8 points), respectively. After incubation at 4° C. for 60 minutes, the cells were washed with FACS buffer twice, then stained with fluorescent conjugated secondary antibody at 4° C. for 30 minutes. After that the cells were washed twice and analyzed by flow cytometry.

[3] = molecular target: T1, human LIV-1; test: FACS, BT20/H_LIV-1 Low cells
Method: as §3

[4] = molecular target: T2, cynomolgus LIV-1 (cynomolgus, UniProt A0A2K5WH46 30-741); test: FACS, cyno LIV-1 cells
Target sequence in this assay (A0A2K5WH46 entry or part of it): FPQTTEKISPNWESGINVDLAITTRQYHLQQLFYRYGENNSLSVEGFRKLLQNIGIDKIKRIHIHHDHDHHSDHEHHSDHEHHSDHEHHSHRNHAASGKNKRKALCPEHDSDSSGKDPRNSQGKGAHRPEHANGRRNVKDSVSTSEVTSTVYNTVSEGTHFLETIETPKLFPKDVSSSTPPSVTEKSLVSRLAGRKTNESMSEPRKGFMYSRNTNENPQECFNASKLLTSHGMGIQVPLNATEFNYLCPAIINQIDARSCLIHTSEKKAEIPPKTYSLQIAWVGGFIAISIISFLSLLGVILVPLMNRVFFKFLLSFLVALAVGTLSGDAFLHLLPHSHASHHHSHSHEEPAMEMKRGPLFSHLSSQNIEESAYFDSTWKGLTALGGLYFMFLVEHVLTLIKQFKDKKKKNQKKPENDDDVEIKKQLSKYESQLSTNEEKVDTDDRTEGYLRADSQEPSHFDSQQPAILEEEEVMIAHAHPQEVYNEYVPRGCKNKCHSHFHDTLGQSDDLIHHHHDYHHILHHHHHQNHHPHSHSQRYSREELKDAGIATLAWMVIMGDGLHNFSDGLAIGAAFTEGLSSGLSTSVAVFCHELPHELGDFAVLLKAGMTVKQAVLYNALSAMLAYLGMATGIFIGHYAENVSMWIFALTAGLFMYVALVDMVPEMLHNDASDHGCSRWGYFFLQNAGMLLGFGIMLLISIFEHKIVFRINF

[5] = molecular target: T1, human LIV-1; test: FACS, HEK293/H_LIV-1 cells
Method: as §3

[6] = molecular target: T1, human LIV-1; test: cell-based or functional assay
[7] = molecular target: T1, human LIV-1; test: cell-based or functional assay; remark: listed apart in the source
[8] = molecular target: T1, human LIV-1; test: cell-based or functional assay; remark: listed apart in the source
[9] = molecular target: T2, cynomolgus LIV-1; test: FACS, HEK293/Cyno_LIV-1 cells
How it was run: (§4)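 HEK293 cells over-expressing human or cyno LIV-1 incubated with chimeric Abs (from 100 nM, 5-fold dilutions, 8 points) for 60 min at 4 °C, then fluorescent secondary antibody 30 min at 4 °C; washes in 2% FBS/PBS. Binding read by flow cytometry; EC50 from the titration curve.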

[10] = molecular target: T1, human LIV-1; test: cell-based or functional assay; remark: listed apart in the source
[11] = molecular target: T1, human LIV-1; test: FACS, HEK293/H_LIV-1 cells; remark: listed apart in the source
How it was run: as §4

[12] = molecular target: T1, human LIV-1; test: cell-based or functional assay; remark: listed apart in the source
[13] = molecular target: T1, human LIV-1; test: cell-based or functional assay; remark: listed apart in the source
[14] = molecular target: T2, cynomolgus LIV-1; test: FACS, HEK293/Cyno_LIV-1 cells; remark: listed apart in the source
Method: (§5) Cell based binding of optimal leads to different species LIV-1 expressing cells were assessed using flow cytometry. Briefly, the cells were incubated with optimal leads (from 100 nM, 6 folds dilution, 8 points). After incubation at 4° C. for 60 minutes, the cells were washed with 2% FBS/PBS buffer twice, then stained with fluorescent conjugated secondary antibody at 4° C. for 30 minutes. After that the cells were washed twice and resuspended in 80 μL of 2% FBS/PBS buffer. Fluorescent signal of binding was detected using Agilent. The EC50 was calculated using the GraphPad Software (LaJolla, CA).
Target sequence in this assay (A0A2K5WH46 entry or part of it): as above

[15] = molecular target: T2, cynomolgus LIV-1; test: FACS, HEK293/Cyno_LIV-1 cells; remark: listed apart in the source
Target sequence in this assay (A0A2K5WH46 entry or part of it): as above

[16] = molecular target: rhesus LIV-1 (rhesus, UniProt H9FSJ2 30-735); test: FACS, HEK293/Rhe_LIV-1 cells
Chain of rhesus LIV-1 (H9FSJ2 entry or part of it): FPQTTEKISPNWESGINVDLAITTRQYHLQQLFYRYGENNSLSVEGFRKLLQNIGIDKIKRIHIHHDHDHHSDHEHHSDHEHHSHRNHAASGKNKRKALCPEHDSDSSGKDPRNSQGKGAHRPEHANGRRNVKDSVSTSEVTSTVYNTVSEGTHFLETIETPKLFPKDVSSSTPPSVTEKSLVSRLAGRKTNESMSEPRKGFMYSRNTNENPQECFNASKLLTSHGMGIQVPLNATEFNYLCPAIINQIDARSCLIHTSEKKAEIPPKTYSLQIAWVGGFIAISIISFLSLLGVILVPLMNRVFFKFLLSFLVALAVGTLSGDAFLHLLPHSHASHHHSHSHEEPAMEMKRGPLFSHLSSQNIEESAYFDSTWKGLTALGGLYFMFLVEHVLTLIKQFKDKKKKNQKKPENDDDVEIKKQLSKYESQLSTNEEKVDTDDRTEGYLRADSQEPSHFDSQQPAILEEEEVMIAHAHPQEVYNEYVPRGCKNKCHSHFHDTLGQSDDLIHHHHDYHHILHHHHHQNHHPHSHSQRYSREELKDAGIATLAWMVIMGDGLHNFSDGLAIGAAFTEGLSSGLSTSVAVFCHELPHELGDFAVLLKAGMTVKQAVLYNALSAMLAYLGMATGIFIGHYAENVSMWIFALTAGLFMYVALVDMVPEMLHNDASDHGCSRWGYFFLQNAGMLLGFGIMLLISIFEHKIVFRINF
Method: Humanized antibodies 5D6B10.z7, 124H4D11.p2.z4 and 290F10G10.p1.z2 were selected for further testing. In this example, FACS cross binding of these selected antibodies to LIV-1 of different species were assessed using flow cytometry.
as §5

[17] = molecular target: T1, human LIV-1; test: FACS, HEK293/H_LIV-1 cells; remark: listed apart in the source
Method: as §1, §2

B1: 290F10G10.p1.Z2 (antibody, V domains shown)
VH: EVQLVQSGAEVKKPGASVKVSCKASGYTFTSYWIHWVRQAPGQGLEWMGTIYPGDADTRSTQKFKDRVTMTADTSTSTVYMELSSLRSEDTAVYYCARSLIHDDYDKYYFDYWGQGTTVTVSS
VL: DIQMTQSPSSLSASVGDRVTITCKARQDINKYIAWYQQKPGKAPKLLIHYTSILQPGIPSRFSGSGSGRDYTFTISSLQPEDIATYYCLQYDYFFTFGGGTKVEIK
notes: also called 290F10G10.z2; LM-001
EC50 [1]: 240 pM
Top (MFI) [1]: 7660 MFI
EC50 [2]: 1060 pM
Top (MFI) [2]: 18800 MFI
EC50 [3]: 1430 pM
Top (MFI) [3]: 3400 MFI
EC50 [4]: 380 pM
Top (MFI) [4]: 7470 MFI
EC50 [5]: 700 pM
Top (MFI) [5]: 17800 MFI
Internalization EC50 [6]: 5000 pM
Internalization Top (MFI) [6]: 112000 MFI

B2: LM-001-LM-D01 (antibody, V domains shown)
VH: B1 VH
VL: B1 VL
modifications: LM-D01 drug-linker conjugated; site and chain not stated
Bottom (% viability), BT20/H_LIV1-High expression [7]: 37.9%
Bottom (% viability), BT20/H_LIV1-Low expression [7]: 48.4%

B3: LM-001-LM-D03 (antibody, V domains shown)
VH: B1 VH
VL: B1 VL
modifications: LM-D03 drug-linker conjugated; site and chain not stated
Bottom (% viability), BT20/H_LIV1-High expression [7]: 19.5%
Bottom (% viability), BT20/H_LIV1-Low expression [7]: 46.9%

B4: LM-001-DXD (antibody, V domains shown)
VH: B1 VH
VL: B1 VL
modifications: DXD drug moiety conjugated; site and chain not stated
Bottom (% viability), BT20/H_LIV1-High expression [7]: 43.7%
Bottom (% viability), BT20/H_LIV1-Low expression [7]: 58.9%

B5: 290F10G10.z2-MMAE (antibody, V domains shown)
VH: B1 VH
VL: B1 VL
modifications: MMAE drug moiety conjugated; site and chain not stated
notes: also called LM-001-MMAE
EC50 [2]: 660 pM
Top (MFI) [2]: 20800 MFI
Min cell viability %, BT20/H_LIV-1 High [8]: 14.7%
Min cell viability %, BT20/H_LIV-1 Low [8]: 37.9%
Min cell viability %, HEK293/H_LIV-1 [8]: 15.3%
EC50 [3]: 680 pM
Top (MFI) [3]: 3570 MFI
Bottom (% viability), BT20/H_LIV1-High expression [7]: 29.1%
Bottom (% viability), BT20/H_LIV1-Low expression [7]: 46.8%
EC50 [5]: 340 pM
Top (MFI) [5]: 19100 MFI

B6: 124H4D11.p2.z4-MMAE (antibody, V domains shown)
VH: QVQLVQSGAEVVKPGASVKVSCKASGFNIKDYYMHWVRQAPGQGLEWIGWIDPENDDTEYDPKFQGRVTMTADTSTSTVYMELSSLRSEDTAVYYCAARYYAFDYWGQGTMVTVSS
VL: DVLMTQSPLSLPVTLGQPASISCRSSQSIVHSNANTYLEWYLQRPGQSPRLLIYKVSNRFSGVPDRFSGSGSGTDFTLKISRVEAEDVGVYYCFQGSQVPPTFGQGTKLEIK
modifications: MMAE drug moiety conjugated; site and chain not stated
notes: Antibody-drug conjugate of 124H4D11.p2.z4; human gamma 1/kappa
EC50 [2]: 110 pM
Top (MFI) [2]: 20000 MFI
Min cell viability %, BT20/H_LIV-1 High [8]: 18.6%
Min cell viability %, BT20/H_LIV-1 Low [8]: 40.3%
Min cell viability %, HEK293/H_LIV-1 [8]: 15.8%
EC50 [3]: 70 pM
Top (MFI) [3]: 3420 MFI
EC50 [5]: 80 pM
Top (MFI) [5]: 20200 MFI

B7: 5D6B10 (antibody, V domains shown)
VH: QVQLKQSGPGLVQPSQSLSITCTVSGFSLTTYGIHWVRQSPGKGLEWLGVIWTGGTTDYNAAFISRLSISKDNSKSQVFFKMNSLQANDTAIYYCARGPSSYWGQGTLVTVSA
VL: DIVMTQSQKFMSTSVGDRVSVTCKASQNVDTNVVWYQQKPGQSPKALIHSASYRYSGVPDRFTGSGSGTDFTLTISNVQSEDLAEYFCQQYNNYPWTFGGGTKLEIK
notes: Tested as chimeric antibody
EC50 [9]: 170 pM
Top (MFI) [9]: 41100 MFI
Cell viability(%) [10]: 16.4%
Cytotoxicity IC50 [10]: 1550 pM
EC50 [11]: 210 pM
Top (MFI) [11]: 70100 MFI
Internalization EC50 [12]: 12700 pM
Internalization Top (RFU) [12]: 145000 RFU
ADCC reporter EC50 [13]: 300 pM
ADCC reporter Top (RFU) [13]: 121000 RFU
EC50 [14]: 530 pM
Top (MFI) [14]: 13900 MFI
EC50 [15]: 390 pM
Top (MFI) [15]: 25700 MFI
EC50 [16]: 270 pM
Top (MFI) [16]: 38400 MFI
EC50 [17]: 290 pM
Top (MFI) [17]: 61900 MFI
